B1: OR4K15 (parent)
chain: GUUAACGGUCAUAGGCCAUGGAAACUAGGAGCACCAUUUCGCUGCCAGUGAAGAAAUGAACAAAGAAAAUCUGGGCCAGGCAGGCAUCAAAAGAAAUAGUCUUGCGCUCAACCAGAAAGUCUGUAAUCAUUUUAAGGGUA

Variants of: B1
Test: self-cleavage, relative activity (ratio to wild type); higher = more cleavage; in vitro, sequencing; the parent is a self-cleaving ribozyme

Variant | self-cleavage
G14U U87C | 1.48
U103G U127C | 0
G1A A18C | 1.98
U3C U9A | 0.85
U43C A118G | 1.02
G48A A95G | 1.29
U49C A129U | 0.92
A55U A116G | 0.88
A11U G58U | 0.86
U9A U127C | 1.05
C61U G136A | 2.1
A67G A94G | 1.74
U49C U102C | 2
A23C U38C | 1.73
A47G A67U | 1.48
A52G C77A | 1.2
A22G C88U | 2.1
U2C G14A | 1.39
G14A C40A | 1.54
U49C G138C | 1.54
U108C A114U | 0.01
U9C A69G | 1.38
C105A A134G | 0.05
U108A U127A | 0.03

Variant | self-cleavage
A63G A126U | 0.57
A68U A116G | 1.07
A78G A89C | 0.43
A91G C128A | 0.44
U43A A110U | 2.05
A5G U108C | 0.06
A22C U139C | 0.51
A64G G74U | 0.24
A30C A89G | 1.34
A62G G115U | 0.07
C34U U103G | 0.04
A23G A47G | 0.86
U9C G31A | 1.12
A62C | 1.64
A27G U100C | 1.8
A22G C105U | 0.25
A62G A96G | 1.53
U49A A54U | 0.89
A78U A94U | 0.4
U127C A129G | 0.46
A82G U100C | 1.36
A24G A134U | 0.93
A56U A62U | 1.15
G1U C105A | 0.03

Variant | self-cleavage
A51G A125U | 1.72
A56G U87C | 0.74
U43C U72A | 0.4
A24U U100A | 0.31
U9A A95G | 1.18
G8A A134G | 1.52
A13G U130A | 0.34
C85U U131C | 0.69
A98U U124C | 2.17
A23G A95G | 1.59
A33U G41A | 1.52
U26C U122A | 1.87
U87C A98G | 0.74
U103A A134U | 0.87
U97A A114G | 0.64
A4G A66G | 0.53
U103C A117C | 0.29
U49A U132C | 1.09
U9C U70C | 0.77
A82G A118G | 0.14
C25U A51G | 2.48
G14A A78U | 0.22
A66G U72A | 0.32
A96G A117U | 0.89

Variant | self-cleavage
A4C A24U | 0.5
A23U U38C | 0.48
A82G A95G | 1.23
G58U A89U | 1.46
A92G U122G | 2.31
U120C U130C | 0.3
U72A A116G | 0.04
A47G U132A | 1.55
C40U A90G | 1.72
U39C U102C | 2.19
A92U A118G | 1.02
U38C C61U | 1.86
A24C U108A | 0.01
U70C C113G | 0.02
A5U A47G | 1
U37C A60C | 1.44
U2G U19A | 0.72
U3C U120C | 1.42
A60G U87C | 0.93
A11G A18G | 1.36
A86G A125U | 0.14
U39A U127A | 1.46
U70C G119A | 1.49
C6A A94G | 0.36

Variant | self-cleavage
G29U | 1.83
A111U A118G | 0.05
U43G A129G | 1.19
C35U G136U | 1.19
A63G U102G | 0.54
A30C U132C | 1.12
U49G A98G | 0.14
U26C A78G | 0.21
C10A A69G | 0.29
C109A A117G | 0.59
U122A A126G | 0.67
A24C U43C | 1.9
A11U A24G | 1.7
A62G U131C | 1.29
A68G A110G | 0.25
A62U A91G | 0.94
G8U A126G | 0.32
A24U U133A | 1.54
A86C U127A | 1.62
U3C G7A | 0.99
A68U U100C | 2.4
G29U A33G | 1.58
U38G | 1.59
U2C A4G | 0.87

Variant | self-cleavage
U37C U127C | 1.08
U108C A117G | 0.01
A27U | 0.91
A18U U43C | 1.42
A24G G75A | 0.15
A5C A30G | 0.85
A67G A125G | 0.57
A60U U87A | 1.61
A66G C105G | 0.03
U49C A92U | 1.42
U9A G58A | 0.78
C107U U130C | 0
U103G U131C | 0.01
A78U U120G | 0.37
G53A U103C | 0.64
U19C C109U | 0.63
A82G G83U | 0.08
C105U A116G | 0.03
G74A U87C | 0.19
A54G C71U | 0.58
U103C U124C | 0.96
U37C G48A | 1.59
A66G A69G | 1.02
U39C A96G | 1.77

Variant | self-cleavage
U131A U133A | 0.95
A69G A98U | 1.35
A13G C88U | 1.29
C34U A95G | 0.45
A78G G106C | 0.02
A18G A59C | 1.7
A51G A86G | 1.46
A62U G99A | 0.62
G74A U139C | 0.19
A51G A78U | 0.35
A5G A98G | 0.7
A91G A114C | 0.02
U97A | 1.75
A59G A129U | 0.86
A95G A110G | 0.15
A18U A92G | 1.04
U19C C113A | 0
A118U U127A | 0.97
A67U U87C | 1.29
C40U A98G | 0.83
C32U A117U | 0.3
A33U C128A | 0.48
C42A C45A | 1.75
